Assay [1] concerns the target T1, soluble aggregates of tau (STAs) (human, UniProt P10636-8 1-441).
T1 construct: also called soluble Tau aggregates; SPAs (as a member of the group)
The assay is described as follows: ELISA. Conditions: both partners purified. On the technique in general: An ELISA detects its analyte on a solid surface through an enzyme-linked reagent.

For assay [2], the target named is T2, soluble aggregates of Aβ_(1–42) (SBAs) (human, UniProt P05067 672-713).
T2 construct: also called soluble Aβ aggregates; SPAs (as a member of the group)
The assay is described as follows: ELISA. The settings on record: both partners purified.

T1 sequence (P10636 other isoform, or with tags, fused parts or gaps): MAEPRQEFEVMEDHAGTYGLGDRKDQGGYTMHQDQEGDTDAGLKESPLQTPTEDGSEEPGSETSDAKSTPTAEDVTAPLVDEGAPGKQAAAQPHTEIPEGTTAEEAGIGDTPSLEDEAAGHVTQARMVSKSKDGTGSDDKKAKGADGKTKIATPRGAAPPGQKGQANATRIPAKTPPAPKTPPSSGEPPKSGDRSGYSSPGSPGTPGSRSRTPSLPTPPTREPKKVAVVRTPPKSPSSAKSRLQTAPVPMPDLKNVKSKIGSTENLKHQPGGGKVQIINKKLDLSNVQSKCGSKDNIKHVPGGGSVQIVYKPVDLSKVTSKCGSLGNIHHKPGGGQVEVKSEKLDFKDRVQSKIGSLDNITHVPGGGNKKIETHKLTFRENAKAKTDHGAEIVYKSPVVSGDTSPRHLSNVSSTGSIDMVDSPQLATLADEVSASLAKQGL

B1: recombinant murine prion protein PrP_(23–231) (domain or fragment)
chain: not shown
notes: also called full-length PrP
As for B1, the binding result in assay [1] and in assay [2] was “binds” each time.

The record behind these values is paper PMC7035229 (Acta Neuropathologica, 2019).
